Measured values as given in patent US8357518B2, “Thermostable enzymes for the hydrolysis of mannan-containing polysaccharides” (The Board of Trustees of the University of Illinois, priority 2010, dated 2013).

How the values were obtained:
Experiment in all cases: Catalytic efficiency with oligosaccharides, HPAEC (Man5B)
Format in all cases: biochemical, Caldanaerobius polysaccharolyticus
Conditions in all cases: other: Man5B 3 nM, oligosaccharide 30 μM, citrate buffer 50 mM, pH 5.5, 5 min, triplicate
[1] = substrate: OC[C@H]1O[C@@H](O[C@H]2[C@H](O)[C@@H](O)[C@H](O[C@H]3[C@H](O)[C@@H](O)[C@H](O[C@H]4[C@H](O)[C@@H](O)[C@H](O[C@H]5[C@H](O)[C@@H](O)C(O)O[C@@H]5CO)O[C@@H]4CO)O[C@@H]3CO)O[C@@H]2CO)[C@H](O)[C@@H](O)[C@@H]1O
Method: (§1) Cloning, expression, and purification of Man5A-TM1, Man5A-TM2 and Man5B. C. polysaccharolyticus was cultured in TYG medium and DNA was isolated from mid-log cultures and purified using the Qiagen DNeasy Blood and Tissue kit with an integrated RNase treatment step. The genome of C. polysaccharolyticus was partially sequenced by the W. M. Keck Biotechnology Center at the University of Illinois at Urbana-Champaign. A Newbler assembly was generated which is comprised of ½ plate of FLX PE 454 data and ½ plate of 8 kb paired-end GSFLX Titanium data using a Genome Sequencer instrument from 454 Life Sciences (Branford, Conn.). The partial genome sequence was uploaded onto the Rapid Annotation using Subsystem Technology (RAST) server (Aziz et al., BMC Genomics, 9:75, 2008). Auto-annotation of the C. polysaccharolyticus partial genome sequence identified ORF0760 as a gene predicted to encode a bifunctional β-D-mannanase/endoglucanase (Man5B). Man5A was previously identified in a recombinant phage library of C. polysaccharolyticus genomic DNA, which was screened for endoglucanase activity (Cann et al., J Bacteriol, 181:1643, 1999) and the full sequence of this gene was also identified in the partial genome sequence for C. polysaccharolyticus.
(§2) The DNA sequence corresponding to man5B was amplified by the PicoMaxx high fidelity PCR kit using genomic DNA as the template with the primer set Man5B-Forward and Man5B-Reverse (Table 1-1). The primers were engineered to incorporate a 5′-[…] (SEQ ID NO: 54) extension in Man5B-F and a 5′-[…] (SEQ ID NO: 55) extension in Man5B-R, which facilitated subsequent directional cloning. The resultant man5B amplicon was then digested with T4 DNA polymerase exonuclease activity, annealed with a similarly digested pET-46b vector and introduced into E. coli JM109 by electroporation. Man5A-TM1 was amplified using genomic DNA as template with primers Man5A-TM1-F and Man5A-TM1-R (Table 1-1). The primer sets for Man5A-TM1 and Man5A-TM2 were designed to include 5′-NdeI and 3′-XhoI restriction sites for subsequent directional cloning. The resulting amplicons were then cloned into the pGEM-T vector via TA-cloning and subcloned in-frame with the hexahistidine (His6) encoding sequence of a modified pET-28a expression vector via its NdeI-XhoI polylinker site. The truncated protein Man5A-TM2 originally named ManA-SLH-CBD was cloned as described in a previous study (Cann et al., J Bacteriol, 181:1643, 1999). Expression of each of the resulting gene constructs yielded fusion proteins containing an N-terminal polyhistidine tag sequence to facilitate affinity purification via metal chelate chromatography. The resulting plasmid constructs pET46-Man5B, pET28a-Man5A-TM1, and pET-28a-Man5A-TM2 were sequenced to confirm the integrity of the cloned genes (W. M. Keck Center for Comparative and Functional Genomics at the University of Illinois at Urbana-Champaign).
(§3) The plasmid constructs were then introduced into E. coli BL-21 CodonPlus (DE3) RIL competent cells by heat shock, and grown overnight in lysogeny broth (LB) agar medium supplemented with ampicillin (100 μg/mL) and chloramphenicol (50 μg/mL) at 37° C. After 12 h, single colonies were selected and used to inoculate fresh LB (10 mL) supplemented with the antibiotics above at the same concentrations, followed by culturing with aeration for 8 h at 37° C. […]

[2] = substrate: OC[C@H]1O[C@@H](O[C@H]2[C@H](O)[C@H](O)C(O)O[C@@H]2CO)[C@@H](O)[C@@H](O)[C@@H]1O
Method: as §1, §2, §3

[3] = substrate: OC[C@H]1O[C@@H](O[C@H]2[C@H](O)[C@H](O)[C@H](O[C@H]3[C@H](O)[C@H](O)[C@H](O[C@H]4[C@H](O)[C@H](O)[C@H](O[C@H]5[C@H](O)[C@H](O)C(O)O[C@@H]5CO)O[C@@H]4CO)O[C@@H]3CO)O[C@@H]2CO)[C@@H](O)[C@@H](O)[C@@H]1O
Method: as §1, §2, §3

[4] = substrate: OC[C@H]1O[C@H](OC[C@H]2OC(O)[C@@H](O)[C@@H](O)[C@@H]2O[C@@H]2O[C@H](CO)[C@@H](O)[C@H](O)[C@@H]2O)[C@H](O)[C@@H](O)[C@H]1O
Method: as §1, §2, §3

[5] = substrate: OC[C@H]1O[C@H](OC[C@H]2OC(O)[C@@H](O)[C@@H](O)[C@@H]2O[C@@H]2O[C@H](CO)[C@@H](O[C@@H]3O[C@H](CO)[C@@H](O)[C@H](O)[C@@H]3O)[C@H](O)[C@@H]2O)[C@H](O)[C@@H](O)[C@H]1O
Method: as §1, §2, §3

B1: Caldanaerobius polysaccharolyticus endo-β-mannanase Man5B, wild type, SEQ ID NO: 31 (Caldanaerobius polysaccharolyticus) (protein)
chain: MKKYGFNFQWMYVWEEGREPEPPDKKALDFLAETGFNFVRIPVDYRFWTRNFDYFNPDKKVFEYIDLYLRECSARNIHMCLNLHRAPGYCINRNDIERDNLWLDKRAQDGFVYQWELFAKRYKGVSSKFLSFDLVNEPPNIGQYGLTRENHASLIIRTVEAIRKIDPDREIVIDGLGGGNIAMPELAHLGVVHSGRGYQPMALTHYQASWWDGHKGLPEPYYPDLLWQGKVWNKDTLREYYKPWRDLQQKGVNVHIGEFGCFNKTSNDVAIRWFEDVLSLYKEFEWGYSLWNFKGPFGIVEHGRPGAKYEYYRGFKVDRELLDLLVENRV
In the case of B1, the kcat/Km [1] is reported as 17000 ± 3000 M⁻¹ s⁻¹, the kcat/Km [2] is reported as 230 ± 30 M⁻¹ s⁻¹ and the kcat/Km [3] is reported as “(2.2 ± 0.3) × 10^2 mM^−1 s^−1”. It also gave a kcat/Km [4] of 1500 ± 200 M⁻¹ s⁻¹ and a kcat/Km [5] of 30000 ± 7000 M⁻¹ s⁻¹.
